US20100062980A1 (NATIONAL UNIVERSITY OF SINGAPORE, published 2010)

What was measured:
[1] = molecular target: T1, cloned human β-adrenergic receptor subtype 1 (human, UniProt P08588 1-477)
[2] = molecular target: T2, cloned human β-adrenergic receptor subtype 2 (human, UniProt P07550 1-413)
[3] = molecular target: T1, cloned human β-adrenergic receptor …; assay: radioligand displacement ((-)-[3H]CGP-12177), Ki from IC50 by Cheng-Prusoff
[4] = molecular target: T2, cloned human β-adrenergic receptor …; assay: as above

T1 sequence (P08588 whole entry): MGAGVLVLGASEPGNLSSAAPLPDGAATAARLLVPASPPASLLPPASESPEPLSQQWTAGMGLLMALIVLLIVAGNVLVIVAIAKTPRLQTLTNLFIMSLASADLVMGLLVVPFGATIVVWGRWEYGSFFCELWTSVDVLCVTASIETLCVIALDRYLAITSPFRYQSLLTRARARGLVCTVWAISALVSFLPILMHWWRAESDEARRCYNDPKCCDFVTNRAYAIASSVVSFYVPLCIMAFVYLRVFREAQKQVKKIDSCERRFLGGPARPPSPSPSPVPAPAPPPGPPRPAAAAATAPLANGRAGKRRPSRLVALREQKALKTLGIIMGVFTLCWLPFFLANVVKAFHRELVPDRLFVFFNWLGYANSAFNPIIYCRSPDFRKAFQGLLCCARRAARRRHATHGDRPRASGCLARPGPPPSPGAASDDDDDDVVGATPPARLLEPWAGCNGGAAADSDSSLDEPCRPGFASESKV

B1: β-cardiotoxin (ligand)
chain: RKCLNTPLPLIYTTCPIGQDKCVKMTIKKLPSKYDVIRGCIDICPKSSADVEVLCCDTNKCNK
notes: also called beta-cardiotoxin; AY354198 protein
IC50 [1]: 10 µM | IC50 [2]: 5 µM | Ki [3]: 5.3 µM | Ki [4]: 2.3 µM
